According to paper PMC6530877 (PLoS Pathogens, 2019):

Assays:
Experiment in all cases: ELISA; Fab fragments (IGH526, HCV1) coated ~2 μg per well; purified E1E2-DHD15 or E1E2-Fc serially diluted in 25 mM Tris, 150 mM NaCl, pH 7.4, 0.05% Tween-20, 1% BSA; detection by anti-FLAG M2 and/or HRP anti-mouse IgG
Details in all cases: both partners purified
[1] = target: T1, E1E2-Fc heterodimer (HCV E1 and E2 ectodomains, Fc-tagged), mammalian cell expressed (hepatitis C virus genotype 1b, Con1, UniProt Q9WMX2)
T1 construct: source: HEK293F, transient (pMlink), secreted, purified

[2] = target: T2, E1E2-DHD15 heterodimer (HCV E1 and E2 ectodomains with the de novo designed heterodimeric tag DHD15), insect … (hepatitis C virus genotype 1b, Con1, UniProt Q9WMX2)
T2 construct: source: High-5 insect cells (baculovirus), secreted, purified (Ni-NTA, Flag M2, SEC)

[3] = target: T3, E1E2-DHD15 heterodimer (HCV E1 and E2 ectodomains with the de novo designed heterodimeric tag DHD15), … (hepatitis C virus genotype 1b, Con1, UniProt Q9WMX2)
T3 construct: source: HEK293F, transient (pMlink), secreted, purified

[4] = target: T4, E1E2-Fc oligomer (oligomeric SEC fraction of Fc-tagged HCV E1E2), expressed in HEK293 cells (hepatitis C virus genotype 1b, Con1, UniProt Q9WMX2)
T4 construct: also called E1E2 oligomer; oligomeric E1E2; source: HEK293F, transient (pMlink), secreted, purified (oligomer peak of the SEC)

Measured: binding result

B1: Fab fragment of neutralizing antibody HCV1 (Fab, V domains shown)
VH: EVQLLESGGGVVQPGRSLRLSCTASGFTFNNYGMHWVRQTPGKGLEWLAVIWFDENNKYYADSVRGRFTISRDNSKNTLFLQMNSLKTEDTAMYYCARDISLVRDAFIYFDFWGLGTLVTVSS
VL: ELTLTQSPATLSLSPGERATLSCRASQSVSSYLAWYQQKPGQAPRLLIYDASNRATGIPARFSGSGSGTDFTLTISSLEPEDFAVYYCQQRSNWITFGQGTRLEIK
notes: source: HEK293F, transient (pMlink), purified
binds: [1] | [2] | [3] | [4]
